# According to the supplement of paper PMC12764529:
# ± gives the half width of the 95% confidence interval.
# Experiments:
# [1] = folding stability dG unfold (combined trypsin and chymotrypsin); higher = more stable
# Protocol: (§1)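 Folding stability of de novo designed mini-proteins (<80 aa, no Cys; designed by TrROS, TrMRF, ProteinMPNN and the joint model) was measured by cDNA display proteolysis with trypsin and chymotrypsin. Each protease was used at 11 concentrations in a threefold dilution series plus a no-protease condition. K50 was inferred by Bayesian fitting of sequencing counts, and dG unfold was derived against a sequence-predicted unfolded-state K50 (Tsuboyama et al. method). Sequences shown include variable-length N-terminal GS-type padding (SAGGSAGG...) inside a display construct carrying a PA tag. Rows were kept only if the AF2 dimer inter-PAE was >15, to exclude likely homo-oligomers.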
# [2] = folding stability dG unfold from chymotrypsin proteolysis; higher = more stable
# Protocol: as §1
Sequence,folding stability dG unfold [1] [kJ/mol],folding stability dG unfold [2] [kJ/mol]
SAGGSAMKIEVEEFPVLVPPELIPELKDKPGAIVKVKKVKFYAEAPEEEREKLKKELEEKTGIKTESAGGSA [r15_347_TrMRF],< -4.18,0.304 ± 2.55
SAGGSAGGIWIPADEFKGQPIKVRIKHNGNERPIEEVKIKSHPDGFVFIEFPPELPENMKIEIESAGGSAGG [r6_630_TrROS],-0.0476 ± 0.628,1.9 ± 0.502
SGRIKDVIMERDDNGGGNIMIMKLGNGEMEHIPPGEKLEIPLPPDDTLYLMVFDPNDGEPIETEEIKVDDSA [r9_209_TrROS],< -4.18,-1.54 ± 1.46
SAGGSAGGGPDLKVTDIEFDPETGEIRIRTEAGGKLVAEVTIKGAPPVPVYPDKDGNWYPAGAKSAGGSAGG [r6_832_TrMRF],2.16 ± 0.502,4.12 ± 0.259
SAGGMILIERDGRERVLEKAREAVEAEAARARAGDVEDAVLLVDLRVVDPVTGEWEELPVLARVPPASAGGS [r8_163_TrMRF],-0.198 ± 0.46,1.93 ± 0.318
SAGGSASPELQKRIKDALQEENPDYPVTVDEVDPKNNTIMITFNSPWHQKRIEKALKEDGIKITIYSAGGSA [r15_196_TrROS],-2.59 ± 1.13,-0.215 ± 1.59
SAGGSAGGSAGGNDPNGQEKEIPIDPGQRADEIAEEFKDEFNPDHVEIEASEEGYAEVRVSAGGSAGGSAGG [r7_273_TrROS],1.46 ± 0.331,3.71 ± 0.184
SAGGSAGGPIRIDPEDGRIRNNGQPYKFDKIEDIEPNENNKSIRLTIRMKNGKEHKQPIPADDISAGGSAGG [r6_682_TrROS],< -4.18,-3.18 ± 4.18
SAGGSAGGSAGIKIYAPGFPGMPVEIERDPDEPNVIKIKIKGPDNGEPQERTFPADDLEISAGGSAGGSAGG [r17_341_TrROS],-0.708 ± 1.17,2.2 ± 0.31
SAGGSAGGSAGGSVEIRDARIELGDNTLRIEISFPDGGTRRIEIEVEPVPPLPPSLLDRSAGGSAGGSAGGS [r4_372_TrMRF],< -4.18,0.454 ± 0.46
SAGGSAGGSMVVTERSVRPVPRLVRTSDPSTGSSSVHLDPGAVETVRVIEEPPTPELLANTGASAGGSAGGS [r20_172_JUSTAS],< -4.18,-5.67 ± 1.38
AARSVDVEVEELSTVTPAGGRTRLLRVRAYVPETGRTAEVPYRAVLLPDGSERPFGTAEELADRIARLLVSS [r1_77_TrMRF],-0.156 ± 0.502,0.76 ± 0.711
SAGGSAGGSAGMEMKLRPEPVVEVTPTVTTEPDPSLGTTVTTTTYTFDNGEVKTETDTGGSAGGSAGGSAGG [r11_463_JUSTAS],-1.85 ± 1.17,0.155 ± 1.05
SAGGDARVARARIRLTRPFPDEDGVVRWEPVVPPGDPVEVGLVLEDDTLVANAVFDGRPVLATVRLESAGGS [r16_500_TrMRF],< -4.18,-1.7 ± 1.13
SAGGSAMKTSLSRSTSTDPSDPNVTYKTTTTFLPDNTVLTNTTTTTRVGSSDVTTTTTTTTPIPAASAGGSA [r15_553_JUSTAS],0.564 ± 0.753,1.71 ± 0.753
SAGMMRVEVFGDGELLEVTELDGDTVEVPVPPERHRVRVFAPGDDRAAEAEVDPAKGVVVLKVPADARISAG [r5_469_TrMRF],-3.43 ± 1.59,-0.822 ± 1
SAGMVKINVAKLPDGKYVITVVDANDGTPLLELPVDSPEGAEKAAKAIAEELKKKYPDATVEVDYTDFESAG [r5_383_TrMRF],17.3 ± 2.68,14.6 ± 0.795
SAGSIQVSESALAPGYSLYTITIPYQSIEDAKKLVEEIVSKRFSVPAEIIETKVDPNTGVVTFTVKVPPSAG [r5_810_JUSTAS],22.3 ± 0.628,22.2 ± 0.368
SAGGSAGGSAGPVIRIPDATVTTDPATGTLTVTTAGRTVTVPPGATVTVLPDGTVVVERPSAGGSAGGSAGG [r17_34_JUSTAS],-0.215 ± 0.28,3.17 ± 0.146
SAGGSAMSRTITVEITDPRNGKKLKNVVIDVPEDEDISDEEILKKIGIPEKEAKNIKVSKTTEELESAGGSA [r15_665_JUSTAS],0.708 ± 0.795,1.53 ± 0.711
SAGDIEIEVEELGEGYKKITIRIKVDSIEEAIKEVEEIVRDFFSEEAEIVEIKIDPEKGIVEAVVIVPESAG [r5_810_TrMRF],–,14.2 ± 1.67
SAGGSAGGSAGGEPDPKFHVEYDEEEGRYKVKIYNPNNNKKEEIEVPVPPGQPKEEAIKSAGGSAGGSAGGS [r10_676_TrROS],-1.13 ± 1.13,0.103 ± 0.46
SAGGSARVVTAVARHPNSTEATLTVTDSGAAGGTSEITFASPEDLLAAIRNLPASVASVSVRPLLPSAGGSA [r15_589_TrMRF],1.77 ± 0.385,3.37 ± 0.117
SASLTPVGPGPDSVVTADPSTGKLYRLEPADGRLTVTTTTFAPGPAAPAPTTTTLPLSPEEAAALRALLSAG [r14_245_JUSTAS],< -4.18,-1.27 ± 1.09
SAAKPVVIEVGFDGKPVTVVVYPNPGRVRAYVPATNAVSEATVGEDGEVNLLLYNPADGKPLPANITVPSAG [r14_656_TrMRF],< -4.18,-4.07 ± 1.63
SVIIKGPGPETYYVEKFGNETKITKFSTEGDKFYKKEYYETFDPNNKTVSRKENEVEEIEPEEEKPFSELSA [r9_83_JUSTAS],0.0869 ± 0.46,2.28 ± 0.46

Sequence,folding stability dG unfold [1] [kJ/mol],folding stability dG unfold [2] [kJ/mol]
SAGGSAGGWVEQTYMVPPDMPVNMIKNKLEPWGVEIDDVEPFPNGNSIVTITIPPEFLKDPDEKSAGGSAGG [r6_470_TrROS],-1.1 ± 2.13,2.4 ± 0.92
SAGGSAGGSVTAVPIEELIPLPTPRTLKVTGTVYVLPGGEVVTERTLTEPSPGTVTVETKTIPLSAGGSAGG [r6_727_JUSTAS],< -4.18,-2.16 ± 1.67
SAGRPPEALREEVSEETITIPVPSTDSDEAPALTTKVTKTTTRLPTPVTTTTTTTTYPDGTTTTTTTAASAG [r5_580_JUSTAS],-0.255 ± 0.46,1.19 ± 0.138
SAGGSDPVSVSTEGGNTYVTVGDTPVLRLSKGKPEPPVLVTLPNGEVIEMPRSEALARDPSTIEFTPGSAGG [r13_802_JUSTAS],-0.495 ± 0.502,1.54 ± 0.176
SAGGSAGGSAGGSMVITIEYTGSVEDLIKKLKEEGLDVKVLEVKFDPKTGKYTVTLEVKSAGGSAGGSAGGS [r4_315_JUSTAS],–,17.7 ± 0.837
SAGGSAGGSAGGKTITLDELRENFPPGYQIRDNNGKQHRINANEPIEEGDPIEIVSKDDISAGGSAGGSAGG [r7_507_TrROS],–,-0.864 ± 0.711
SAGGSAGGSAGGPVIPKDVKVKVIFSNGEVAELEVDSVDDLQKKLNVPIPPNVNLVVSRGSAGGSAGGSAGG [r7_223_TrMRF],–,-3.18 ± 1.55
SLEELAKAIAEKLGLPVEDVEVRVEKEVDEETGEERLRVTVLIKVDGKTYLIEIDLETGEIVEIKPLEDLSA [r9_1219_TrROS_Hall],–,19.6 ± 0.962
SAGGSAGGSAGTRTINMPNPHQARELIKEQPPGKPITIHMPNPEWAKELADAPGVPIQMHSAGGSAGGSAGG [r11_1071_TrROS],< -4.18,–
SAGGSAGGPPMEPIPFRVRVDEVEHDPPNGNVVITIKDGDKNPHTINIPPEMAKNMPIEPGDELSAGGSAGG [r6_915_TrROS],< -4.18,–
SAGGSAGGSAGMTPLYFRVERVDPASGGSLEEVVEIDPAEREAVVEELRAVPGLVRVELVSAGGSAGGSAGG [r17_438_JUSTAS],< -4.18,–
SAGGSAGGSPPKPITIMAPYDSPEEAMDKAEEIADELANEGYDIKDVEIEYHPNNGYAMVRIRSAGGSAGGS [r20_155_TrROS],< -4.18,–
MRRTLETDEIRRLEIELRPAPGRTAVLDAVVELRDGTPVPLPFPLRLESGRLDPATVERAEREAVEEALARS [r1_124_TrMRF],< -4.18,–
SAGGSAGGSAGGSVIMVNSPEWAKEFAGAMMQEKSRKHGEPMTPDDVPVEIEVYDPEDWSAGGSAGGSAGGS [r4_498_TrROS],< -4.18,–
SAGPKIEIEPLDWERDPGNGHMVIPVEISVKVPREENGRPPEQAEEKKESLVREFAREWAPKHGMPIHVSAG [r5_333_TrROS],< -4.18,–
SAGGSAGGSKILEIERDPEKGLVKITVPPDVPPNPHPRLLKVEPKNNKYIVTFPMSPSDEIELSAGGSAGGS [r20_37_JUSTAS],< -4.18,–
SAGGSAGGSAGMKIFKSKEEAKKAAGPPVELKVKKVPPGSIGKGDPNDTAYLVELKPKEKSAGGSAGGSAGG [r11_168_TrMRF],< -4.18,–
SAGGSAGGSAGGPKIQIPVDSPEDAVDEARDWMEQQFGIDPEDMPINVHVNEDDGWLYIRSAGGSAGGSAGG [r7_387_TrROS],< -4.18,–
DMDFKVEDIKVDPDDGKVKIEMPIPNPNMPIAIFAPNGKIKDVKWEHYKEDGRMKIEIPVKSPDEVRAFIFS [r1_138_TrROS],< -4.18,–
SAGGSAGGSAGGGKVKSIELNPETDLALVEIEPEDGGTATVVLPLDLLENIPLDGTLTISAGGSAGGSAGGS [r10_255_TrMRF],< -4.18,–
SAGGSAGGSAGGTAEEIRDIFEEHGMEVEVEVTPDNVTIQYEMPNGKKREFRIPADDLKSAGGSAGGSAGGS [r10_1029_TrROS],< -4.18,–
SAGGSAGGSTMEKLQDKAKELGPNVSVEPSQDGPDSIKITFDPDHPKKIKDIAKEYGIKVQIYSAGGSAGGS [r12_74_TrROS],< -4.18,–
SAGGSAKVTVDEKDLKVTVESNIPVLVTYTLPGGKKKPFAGYLPPEKIEEFAKKEAEKFATELLGKSAGGSA [r15_365_TrMRF],< -4.18,–
SAGGSAGGSGMPIVVTHPSGVGLDEYIPEPYVVTMREPDSVIKVTYDPATGTVTTEVDDGAARSAGGSAGGS [r12_243_JUSTAS],< -4.18,–
SAGIKEIAKKLGMPPNNIKIKNIQPQPRRKPDPEDGKPEPEPYPTVSVEIEAPGNGKKREASIPADEIQSAG [r5_517_TrROS],< -4.18,–
